Source: patent US20240010735A1 (EISAI R AND D MANAGEMENT, published 2024)

T1: human EphA3 extracellular region-SEAP-His protein (human, UniProt P29320 21-541)
T1 construct: extracellular domain; also called Eph receptor extracellular region-SEAP-His protein; not shown: secretory alkaline phosphatase (SEAP); histidine tag
T1 sequence (looked up): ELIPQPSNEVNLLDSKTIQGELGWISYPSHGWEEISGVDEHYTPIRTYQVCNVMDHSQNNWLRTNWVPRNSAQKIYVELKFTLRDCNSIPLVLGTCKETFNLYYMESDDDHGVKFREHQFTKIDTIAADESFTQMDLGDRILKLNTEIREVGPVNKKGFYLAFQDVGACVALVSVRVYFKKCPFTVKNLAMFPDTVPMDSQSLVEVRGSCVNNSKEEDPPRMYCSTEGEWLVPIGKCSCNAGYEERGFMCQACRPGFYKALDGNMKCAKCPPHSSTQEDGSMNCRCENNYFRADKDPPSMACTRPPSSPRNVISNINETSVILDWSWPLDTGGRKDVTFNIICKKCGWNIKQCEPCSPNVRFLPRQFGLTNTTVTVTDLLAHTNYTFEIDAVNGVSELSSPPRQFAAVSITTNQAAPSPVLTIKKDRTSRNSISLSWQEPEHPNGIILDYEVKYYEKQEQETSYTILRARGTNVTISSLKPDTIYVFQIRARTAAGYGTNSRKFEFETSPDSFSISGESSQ

T2: human EphA8 extracellular region-SEAP-His protein (human, UniProt P29322 28-542)
T2 construct: extracellular domain; also called Eph receptor extracellular region-SEAP-His protein; not shown: secretory alkaline phosphatase (SEAP); histidine tag
T2 sequence (looked up): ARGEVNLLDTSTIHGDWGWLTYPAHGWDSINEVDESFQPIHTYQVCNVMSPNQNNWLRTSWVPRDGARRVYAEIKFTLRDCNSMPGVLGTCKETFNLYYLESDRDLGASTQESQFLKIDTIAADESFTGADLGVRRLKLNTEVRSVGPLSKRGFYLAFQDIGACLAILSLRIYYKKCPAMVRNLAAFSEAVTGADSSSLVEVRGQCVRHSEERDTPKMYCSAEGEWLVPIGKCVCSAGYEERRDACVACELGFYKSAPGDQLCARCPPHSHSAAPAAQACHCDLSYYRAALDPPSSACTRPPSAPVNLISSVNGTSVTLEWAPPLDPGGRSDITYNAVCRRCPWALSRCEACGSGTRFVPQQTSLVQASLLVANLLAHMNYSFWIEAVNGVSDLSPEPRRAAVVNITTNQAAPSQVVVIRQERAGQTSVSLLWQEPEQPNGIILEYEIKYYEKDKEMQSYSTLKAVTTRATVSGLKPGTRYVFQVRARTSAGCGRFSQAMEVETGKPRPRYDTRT

B1: humanized anti-EphA4 monoclonal antibody (antibody B) (antibody, human IgG2, V domains shown)
VH: QVQLVESGGGVVQPGRSLRLSCAVSGFSLTRFGVHWVRQAPGKGLEWVAVIWRGGSTDYNAAFMSRLTISKDNSKNTVYLQMNSLRAEDTAVYYCAKESLFGVYYDYGYYSMDYWGQGTTVTVSS
VL: DIQMTQSPSSLSASVGDRVTITCRASQEISGYLSWLQQKPGKAPKRLIYAASTLDSGVPSRFSGSRSGTEYTLTISSLQPEDFATYYCLQYASYPLTFGGGTKVEIKR
notes: expressed in Expi293F cells; also called humanized antibody of antibody A; HK2-42 / L1-8
B2: mouse anti-EphA4 monoclonal antibody (antibody A) (antibody, mouse IgG1, kappa, V domains shown)
VH: QVQLKQSGPSLVQPSQSLSITCTVSGFSLTRYGVHWVRQSPGKGLEWLGVIWRGGSTDYNAAFMSRLSITKDNSKSQVFFKMNSLQADDTAIYYCAKESLFGVYYDYGYYSMDYWGQGTSVTVSS
VL: DIQMTQSPSSLSASLGERVSLTCRASQEISGYLSWLQQKPDGTIKRLIYAASTLDSGVPKRFSGSRSGSDYSLTISSLESEDFADYYCLQYASYPLTFGAGTKLELKR
notes: purified from hybridoma supernatant

Experiments:
[1] = target: T1, human EphA3 extracellular …; assay: ELISA: SEAP-His proteins (1 nM) captured on anti-6-His antibody, antibody B 10 µg/mL with human IgG 100 µg/mL, HRP anti-human IgG, OD450 as % of human EphA4-SEAP-His
[2] = target: T2, human EphA8 extracellular …; assay: as above
[3] = target: T3, monkey EphA4 extracellular region-Fc-His protein (monkey; human); assay: ELISA: EphA4 extracellular region-Fc-His (1 nM) captured on anti-human IgG antibody, antibody A titrated with human IgG 100 µg/mL, HRP anti-mouse IgG, OD450 as % of top concentration
T3 construct: not shown: Fc region of human IgG1; histidine tag
Method: (§1) Donkey anti-human IgG antibodies (Jackson ImmunoResearch Laboratories) were coated onto the wells of a 96-well plate (Nunc). After incubating at 4° C. overnight, the wells were blocked at room temperature for 1 hour by 1% Block Ace (DS Pharma Biomedical). After washing 3 times with 0.05% Tween 20/PBS (Thermo […]), mouse, rat, monkey, and human EphA4 extracellular region-Fc-His proteins (final concentration 1 nM) were seeded into the wells, and incubated at room temperature for 1 hour. After washing 3 times, human IgG solution (100 μg/mL, Mitsubishi Pharma Corporation) and antibody A (0, 0.00013, 0.00064, 0.0032, 0.016, 0.08, 0.4, 2, 10, μg/mL) were supplemented to the wells, and incubated at room temperature for 1 hour. Horseradish peroxidase-labeled donkey anti-mouse IgG antibody (Jackson ImmunoResearch Laboratories) was added, and incubated at room temperature for 1 hour. After washing 3 times, TMBZ (3,3′,5,5′-tetramethylbenzidine, Sigma) solution was added to the wells, and upon confirmation of modest coloring, an equal amount of quenching solution (1 N H₂SO₄, Wako Pure Chemicals) was added to the wells, and absorbance at 450 nm was read by a microplate reader (PerkinElmer).

[4] = target: T4, human EphA4 extracellular region-Fc-His protein (human, UniProt P54764 20-547); assay: as above
T4 construct: not shown: Fc region of human IgG1; histidine tag
Method: as §1

[5] = target: T5, mouse EphA4 extracellular region-Fc-His protein (mouse; human, UniProt Q03137 20-547); assay: as above
T5 construct: Used as culture supernatant of transfected cells; not shown: Fc region of human IgG1; histidine tag
Method: as §1

[6] = target: T6, rat EphA4 extracellular region-Fc-His protein (rat; human, UniProt D3ZZK3 20-547); assay: as above
T6 construct: range 20-547; also called rat EphA4 extracellular region-Pc-His protein; not shown: Fc region of human IgG1; histidine tag
Method: as §1

T5 sequence (Q03137 20-547): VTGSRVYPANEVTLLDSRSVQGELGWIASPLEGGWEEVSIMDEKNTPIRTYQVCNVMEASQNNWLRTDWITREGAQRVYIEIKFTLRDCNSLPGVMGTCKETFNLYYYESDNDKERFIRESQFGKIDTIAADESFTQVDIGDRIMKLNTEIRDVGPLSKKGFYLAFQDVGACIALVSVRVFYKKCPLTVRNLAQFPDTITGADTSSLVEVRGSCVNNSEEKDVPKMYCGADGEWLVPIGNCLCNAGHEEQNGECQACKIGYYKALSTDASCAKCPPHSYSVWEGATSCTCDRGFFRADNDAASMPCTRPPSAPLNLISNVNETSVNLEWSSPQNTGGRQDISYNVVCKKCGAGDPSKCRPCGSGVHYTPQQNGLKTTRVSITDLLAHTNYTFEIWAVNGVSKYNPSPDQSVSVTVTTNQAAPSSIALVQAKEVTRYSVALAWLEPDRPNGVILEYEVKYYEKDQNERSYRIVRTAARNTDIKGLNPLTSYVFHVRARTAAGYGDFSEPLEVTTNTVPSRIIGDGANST
T4 sequence (P54764 20-547): as the sequence (Q03137 20-547) above, with A59P, S121N, G124V, Q250R, N251S, S270T, R378K, S406N counted along it
T3 sequence (chain, as listed by the source): as the sequence (Q03137 20-547) above, with A59P, S121N, G124V, Q250R, N251S, S270T, R378K counted along it

Binder	binding result [1]	binding result [2]	EC50 (read off the curve) [3] [nM]	EC50 (read off the curve) [4] [nM]	EC50 (read off the curve) [5] [nM]	EC50 (read off the curve) [6] [nM]
B1	no binding (tested: 10 µg/mL)	no binding (tested: 10 µg/mL)	–	–	–	–
B2	–	–	~0.1	~0.1	~0.1	~0.1
